Data taken from US20240261333A1 (published 2024).

Columns and labels:
Test in all cases: co-IP, anti-FLAG, lysate of cells with N-FLAG B3GNT2; mass spectrometry
[1] = molecular target: T1, HNRNPA2B1 (human, UniProt P22626-2 1-341)
T1 construct: also called NP_002128.1 (+1)

[2] = molecular target: RPL10 (human, UniProt P27635 2-214)
[3] = molecular target: T2, LSM12 (human, UniProt Q3MHD2 2-195)
T2 construct: also called NP_689557.1

[4] = molecular target: T3, ATXN2 (human, UniProt Q99700 1-1313)
T3 construct: also called NP_002964.3
T3 sequence (Q99700 whole entry): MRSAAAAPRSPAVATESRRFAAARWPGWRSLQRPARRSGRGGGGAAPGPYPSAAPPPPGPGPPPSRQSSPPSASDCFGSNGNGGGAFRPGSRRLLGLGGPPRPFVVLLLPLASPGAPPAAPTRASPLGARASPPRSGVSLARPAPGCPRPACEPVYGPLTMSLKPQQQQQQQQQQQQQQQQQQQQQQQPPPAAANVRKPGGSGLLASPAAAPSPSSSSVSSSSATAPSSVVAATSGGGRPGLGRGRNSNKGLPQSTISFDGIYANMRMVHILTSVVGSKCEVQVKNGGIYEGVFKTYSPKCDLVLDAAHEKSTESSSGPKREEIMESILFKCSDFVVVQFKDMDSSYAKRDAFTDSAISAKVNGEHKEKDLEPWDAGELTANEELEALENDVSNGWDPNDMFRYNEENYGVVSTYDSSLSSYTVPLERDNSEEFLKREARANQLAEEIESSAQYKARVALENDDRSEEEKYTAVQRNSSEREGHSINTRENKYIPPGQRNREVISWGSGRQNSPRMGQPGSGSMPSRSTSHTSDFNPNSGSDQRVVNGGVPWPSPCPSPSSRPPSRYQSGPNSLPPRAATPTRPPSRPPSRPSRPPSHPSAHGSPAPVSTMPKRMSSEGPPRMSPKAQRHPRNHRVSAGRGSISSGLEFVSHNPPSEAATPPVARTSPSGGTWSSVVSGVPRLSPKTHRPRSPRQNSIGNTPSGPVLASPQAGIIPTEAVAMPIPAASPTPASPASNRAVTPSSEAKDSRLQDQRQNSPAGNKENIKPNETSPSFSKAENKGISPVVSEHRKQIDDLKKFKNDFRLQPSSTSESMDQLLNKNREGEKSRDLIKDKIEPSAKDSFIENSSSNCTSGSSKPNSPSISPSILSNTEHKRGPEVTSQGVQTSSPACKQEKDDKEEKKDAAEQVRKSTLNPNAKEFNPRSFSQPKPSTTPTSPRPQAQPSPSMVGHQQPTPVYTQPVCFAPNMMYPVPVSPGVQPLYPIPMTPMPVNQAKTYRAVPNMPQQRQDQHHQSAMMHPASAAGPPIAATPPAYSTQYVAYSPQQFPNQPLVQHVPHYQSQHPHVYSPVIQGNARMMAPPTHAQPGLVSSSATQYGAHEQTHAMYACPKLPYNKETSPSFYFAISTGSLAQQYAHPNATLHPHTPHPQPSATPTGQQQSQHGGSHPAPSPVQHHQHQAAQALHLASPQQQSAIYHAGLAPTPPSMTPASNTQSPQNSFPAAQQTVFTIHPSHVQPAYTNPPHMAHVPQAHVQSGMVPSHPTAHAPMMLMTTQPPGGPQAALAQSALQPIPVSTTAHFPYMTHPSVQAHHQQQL

[5] = molecular target: T4, HADHB (human, UniProt P55084 34-474)
T4 construct: also called NP_000174.1 (+3)
T4 sequence (looked up): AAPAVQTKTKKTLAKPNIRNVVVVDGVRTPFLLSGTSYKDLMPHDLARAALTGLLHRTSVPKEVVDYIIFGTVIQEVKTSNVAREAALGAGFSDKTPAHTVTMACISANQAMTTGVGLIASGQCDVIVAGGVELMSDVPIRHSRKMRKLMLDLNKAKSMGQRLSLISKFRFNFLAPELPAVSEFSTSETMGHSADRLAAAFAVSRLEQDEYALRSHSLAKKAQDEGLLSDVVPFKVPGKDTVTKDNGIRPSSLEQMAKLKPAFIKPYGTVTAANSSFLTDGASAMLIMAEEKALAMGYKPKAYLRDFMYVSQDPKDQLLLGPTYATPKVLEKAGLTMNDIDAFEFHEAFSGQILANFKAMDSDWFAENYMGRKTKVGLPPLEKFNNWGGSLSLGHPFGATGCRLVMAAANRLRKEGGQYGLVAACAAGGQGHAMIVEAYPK

[6] = molecular target: T5, SERBP1 (human, UniProt Q8NC51 2-408)
T5 construct: also called NP_001018077.1 (+1)
T5 sequence (looked up): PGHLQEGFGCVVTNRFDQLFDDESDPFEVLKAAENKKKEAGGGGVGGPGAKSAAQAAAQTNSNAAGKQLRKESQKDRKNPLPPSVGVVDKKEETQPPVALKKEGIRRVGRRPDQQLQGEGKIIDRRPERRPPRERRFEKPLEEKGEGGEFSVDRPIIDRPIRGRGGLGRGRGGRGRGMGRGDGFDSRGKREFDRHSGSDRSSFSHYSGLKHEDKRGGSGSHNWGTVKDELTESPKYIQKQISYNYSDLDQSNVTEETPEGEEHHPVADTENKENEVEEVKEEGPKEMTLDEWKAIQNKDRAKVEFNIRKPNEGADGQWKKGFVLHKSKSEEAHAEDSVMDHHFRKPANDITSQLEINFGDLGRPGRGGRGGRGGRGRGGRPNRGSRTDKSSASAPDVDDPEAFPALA

[7] = molecular target: FAU (human, UniProt P62861 75-133)

T1 sequence (P22626 other isoform, or with tags, fused parts or gaps limits assumed): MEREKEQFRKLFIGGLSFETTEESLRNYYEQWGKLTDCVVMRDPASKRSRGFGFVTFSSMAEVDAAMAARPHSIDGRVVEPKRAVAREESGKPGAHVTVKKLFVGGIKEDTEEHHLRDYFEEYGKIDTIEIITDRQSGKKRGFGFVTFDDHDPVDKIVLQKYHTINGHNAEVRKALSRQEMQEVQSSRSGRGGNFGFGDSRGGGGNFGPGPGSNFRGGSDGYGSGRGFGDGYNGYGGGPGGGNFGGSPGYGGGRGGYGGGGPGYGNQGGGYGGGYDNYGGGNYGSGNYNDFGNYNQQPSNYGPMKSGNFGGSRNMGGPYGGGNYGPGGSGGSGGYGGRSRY
T2 sequence (Q3MHD2 2-195 limits assumed): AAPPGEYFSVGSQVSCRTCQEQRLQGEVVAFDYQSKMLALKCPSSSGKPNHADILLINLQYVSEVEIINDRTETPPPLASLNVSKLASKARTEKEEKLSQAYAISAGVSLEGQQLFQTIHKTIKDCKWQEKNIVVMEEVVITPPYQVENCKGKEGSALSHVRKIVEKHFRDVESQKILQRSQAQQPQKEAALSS

B1: N-terminal FLAG tagged B3GNT2 (enzyme, human, UniProt Q9NY97 1-397, looked up)
chain: MSVGRRRIKLLGILMMANVFIYFIMEVSKSSSQEKNGKGEVIIPKEKFWKISTPPEAYWNREQEKLNRQYNPILSMLTNQTGEAGRLSNISHLNYCEPDLRVTSVVTGFNNLPDRFKDFLLYLRCRNYSLLIDQPDKCAKKPFLLLAIKSLTPHFARRQAIRESWGQESNAGNQTVVRVFLLGQTPPEDNHPDLSDMLKFESEKHQDILMWNYRDTFFNLSLKEVLFLRWVSTSCPDTEFVFKGDDDVFVNTHHILNYLNSLSKTKAKDLFIGDVIHNAGPHRDKKLKYYIPEVVYSGLYPPYAGGGGFLYSGHLALRLYHITDQVHLYPIDDVYTGMCLQKLGLVPEKHKGFRTFDIEEKNKNNICSYVDLMLVHSRKPQEMIDIWSQLQSAHLKC
notes: Overexpressed in cells and pulled down from the lysate with mouse anti-FLAG antibody; also called N-FLAG B3GNT2; N-term FLAG; not shown: N-terminal FLAG tag
co-IP mass spectrometry count [1]: 7 | co-IP mass spectrometry count [2]: 4 | co-IP mass spectrometry count [3]: 4 | co-IP mass spectrometry count [4]: 4 | co-IP mass spectrometry count [5]: 0 | co-IP mass spectrometry count [6]: 0 | co-IP mass spectrometry count [7]: 5
